The values that follow come from article doi:10.1101/2021.07.15.452465 (2021).

The chains are these.
B1: A. fumigatus CBC consisting of the subunits HapB^230-299, HapC^40-137 and HapE^47-164 (complex)
chain 1: not shown
chain 2: KEQDRWLPIANVARIMKLALPENAKIAKEAKECMQECVSEFISFITSEASEKCQQEKRKTVNGEDILFAMTSLGFENYAEALKIYLSKYRETQSARGE
chain 3: GTWANVNQGLQGTARDILTTYWQHIINHLESDNHDYKIHQLPLARIKKVMKADPEVKMISAEAPILFAKGCDIFITELTMRAWIHAEDNKRRTLQRSDIAAALSKSDMFDFLIDIVPR

Test [1] concerns the target A. fumigatus HapX^24-158 R45A (Aspergillus fumigatus, UniProt Q4WER3 24-158, R45A). In words: SPR; CBC preformed on AfucccA 37 bp DNA. (In general: SPR reads the build-up and loss of mass on a sensor chip optically.)
The target of test [2] is A. fumigatus HapX^24-158 W40A (Aspergillus fumigatus, UniProt Q4WER3 24-158, W40A). As to the kind of experiment: SPR; CBC preformed on AfucccA 37 bp DNA.
In test [3] the target is A. fumigatus HapX^24-158 R50A (Aspergillus fumigatus, UniProt Q4WER3 24-158, R50A). In words: SPR; CBC preformed on AfucccA 37 bp DNA.
The target of test [4] is T1, A. fumigatus HapX^24-158 ΔT36-I42 (Aspergillus fumigatus, UniProt Q4WER3 24-158, ΔT36-I42). In words: SPR; CBC preformed on AfucccA 37 bp DNA.
In test [5] the target is A. fumigatus HapX^24-158 K38E (Aspergillus fumigatus, UniProt Q4WER3 24-158, K38E). In words: SPR; CBC preformed on AfucccA 37 bp DNA.
The target of test [6] is T1, A. fumigatus HapX^24-158 ΔT36-I42. In words: SPR; CBC preformed on Afucyp51A 37 bp DNA.
The target in test [7] is B1. As to the kind of experiment: SPR.
Test [8] concerns the target B1. In words: SPR. This is another data set of the same source.
The target of test [9] is B1. In words: SPR. The source holds these as a separate data set.
The target in test [10] is B1. In words: SPR. This is another data set of the same source.

Where two headings read alike, the source gives them in different places.

Regarding B1, the Kd (as a rule, the equilibrium constant for the complex coming apart) in test [1] was found to be 2.86 nM; in test [2], 13.2 nM; in test [3], 3.93 nM; in test [4] it was 136 nM; in test [5], 3.76 nM; in test [6] it was 511 nM.

B2: A. fumigatus HapX^24-158 wild type (domain or fragment)
chain: SPSPGPGTPGSITSKEWVIPPRPKPGRKPATDTPPTKRKAQNRAAQRAFRERRAARVNELEEQIKKIEDEHEIHIAAFKEQITNLSREVEQCRSEMTWWRDRCHALEKEVSVERSAKEAIVKEFRSSLSDREAVR
Take B2: the dissociation constant Kd in test [7] was found to be 28.3 nM; in [8] it was 0.9 nM; in test [9], 0.34 nM; in test [10], 22.7 nM.
